Results reported in PMC3114554.

How the values were obtained:
Assay in all cases: FRET or BRET
CFP-tagged KCNQ3 (human) = CFP-tagged KCNQ3 (human) (UniProt O43525)
CFP-tagged KCNQ4 (human) = CFP-tagged KCNQ4 (human) (UniProt P56696)
CFP-tagged KCNQ2 (human) = target: CFP-tagged KCNQ2 (human)

Chain of UniProt O43525 (O43525 whole entry): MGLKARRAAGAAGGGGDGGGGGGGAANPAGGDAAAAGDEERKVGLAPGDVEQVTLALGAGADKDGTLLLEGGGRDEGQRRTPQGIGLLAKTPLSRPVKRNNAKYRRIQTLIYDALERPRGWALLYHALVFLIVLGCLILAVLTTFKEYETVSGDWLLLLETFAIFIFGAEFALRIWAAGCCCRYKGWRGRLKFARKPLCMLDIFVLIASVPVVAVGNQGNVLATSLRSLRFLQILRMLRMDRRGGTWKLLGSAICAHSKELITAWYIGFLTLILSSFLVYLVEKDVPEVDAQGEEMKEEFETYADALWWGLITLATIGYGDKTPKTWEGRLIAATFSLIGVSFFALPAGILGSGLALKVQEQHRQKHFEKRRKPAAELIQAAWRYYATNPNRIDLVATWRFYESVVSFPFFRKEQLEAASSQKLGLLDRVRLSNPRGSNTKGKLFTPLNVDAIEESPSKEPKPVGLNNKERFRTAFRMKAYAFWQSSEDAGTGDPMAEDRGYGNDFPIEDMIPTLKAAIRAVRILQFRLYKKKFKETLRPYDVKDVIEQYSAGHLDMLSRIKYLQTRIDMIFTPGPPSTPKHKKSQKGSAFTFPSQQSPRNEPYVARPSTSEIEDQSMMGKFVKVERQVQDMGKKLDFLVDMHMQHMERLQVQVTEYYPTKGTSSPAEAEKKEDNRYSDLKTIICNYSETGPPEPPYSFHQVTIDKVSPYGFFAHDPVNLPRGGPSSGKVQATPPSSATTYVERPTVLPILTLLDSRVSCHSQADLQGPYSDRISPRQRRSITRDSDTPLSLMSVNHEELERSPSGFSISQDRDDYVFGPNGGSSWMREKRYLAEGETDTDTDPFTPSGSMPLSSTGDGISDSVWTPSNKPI
Chain of UniProt P56696 (P56696 whole entry): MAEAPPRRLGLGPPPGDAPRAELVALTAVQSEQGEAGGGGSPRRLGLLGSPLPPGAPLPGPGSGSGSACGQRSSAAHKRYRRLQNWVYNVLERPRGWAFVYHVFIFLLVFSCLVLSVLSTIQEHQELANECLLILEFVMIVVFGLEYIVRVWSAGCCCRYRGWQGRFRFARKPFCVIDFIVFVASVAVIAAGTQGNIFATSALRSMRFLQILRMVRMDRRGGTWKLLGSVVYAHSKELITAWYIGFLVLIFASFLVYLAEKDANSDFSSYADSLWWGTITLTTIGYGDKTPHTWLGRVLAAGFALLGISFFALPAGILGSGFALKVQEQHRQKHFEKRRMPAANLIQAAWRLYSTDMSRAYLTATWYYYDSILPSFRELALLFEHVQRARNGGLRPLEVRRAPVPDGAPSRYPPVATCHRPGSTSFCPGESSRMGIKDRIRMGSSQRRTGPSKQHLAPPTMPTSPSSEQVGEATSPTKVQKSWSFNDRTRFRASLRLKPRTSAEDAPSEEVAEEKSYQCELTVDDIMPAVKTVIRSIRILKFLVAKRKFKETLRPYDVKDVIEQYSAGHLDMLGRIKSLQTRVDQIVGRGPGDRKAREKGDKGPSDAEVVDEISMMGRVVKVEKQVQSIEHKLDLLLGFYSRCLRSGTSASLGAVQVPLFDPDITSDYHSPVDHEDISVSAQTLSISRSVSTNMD

- FRET efficiency (CFP-tagged KCNQ3 (human)): 13%
- FRET efficiency (CFP-tagged KCNQ4 (human)): 16%
- FRET efficiency (CFP-tagged KCNQ2 (human)): 17%
Substance: YFP-tagged ΔA-AKAP79 (from UniProt P24588 1-427) (natural protein)
